Measured values reported in patent US20250382344A1, “Soluble GLP1/GIP/NPY2 Receptor Triple Agonists” (Boehringer Ingelheim International GmH, priority 2024, published 2025).
Numbering of substitutions follows the chain as printed. *1 amine or outer side, *2 acyl side, *3 side chain or, on linkers, in order; H or OH if unused. Where no end group is shown, it is not given here. Side-chain parts run from the residue outwards. [ ]: non-standard residue; d: D form. The star is where a group is joined. C18 diacid = O=C(O)CCCCCCCCCCCCCCCCC(=O)*; γGlu = O=C(O)[C@H](CCC(=O)[*:2])N[*:1]; εLys = N[C@@H](CCCCN[*:1])C(=O)[*:2]; Aib = CC(C)(N)C(=O)O

T1: human GIP receptor (human, UniProt P48546 22-466)
T1 sequence (looked up): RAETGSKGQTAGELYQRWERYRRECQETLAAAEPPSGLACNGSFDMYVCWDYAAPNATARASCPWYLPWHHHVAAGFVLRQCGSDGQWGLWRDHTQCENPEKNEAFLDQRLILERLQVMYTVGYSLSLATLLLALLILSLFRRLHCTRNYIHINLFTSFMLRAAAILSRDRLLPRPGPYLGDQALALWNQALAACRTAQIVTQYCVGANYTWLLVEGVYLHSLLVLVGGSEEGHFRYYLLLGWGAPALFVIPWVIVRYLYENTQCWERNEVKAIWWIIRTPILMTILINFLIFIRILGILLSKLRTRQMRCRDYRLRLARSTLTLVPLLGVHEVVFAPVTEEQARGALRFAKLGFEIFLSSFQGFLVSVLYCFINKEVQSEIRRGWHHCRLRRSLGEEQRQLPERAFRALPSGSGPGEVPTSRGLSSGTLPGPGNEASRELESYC

T2: human neuropeptide Y2 receptor (human, UniProt P49146 1-381)
T2 sequence (looked up): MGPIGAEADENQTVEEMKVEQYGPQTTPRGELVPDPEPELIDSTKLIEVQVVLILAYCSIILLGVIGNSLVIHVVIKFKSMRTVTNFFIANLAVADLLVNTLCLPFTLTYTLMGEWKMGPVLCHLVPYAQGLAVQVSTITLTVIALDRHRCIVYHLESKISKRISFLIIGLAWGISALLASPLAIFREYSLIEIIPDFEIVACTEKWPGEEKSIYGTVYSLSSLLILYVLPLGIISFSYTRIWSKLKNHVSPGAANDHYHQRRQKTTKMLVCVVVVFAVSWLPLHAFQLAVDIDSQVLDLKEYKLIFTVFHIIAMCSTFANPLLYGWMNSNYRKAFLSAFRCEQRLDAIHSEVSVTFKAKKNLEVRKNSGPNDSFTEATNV

B1: Compound 172 (peptide)
peptide: YXEGTFTSDYSIXLEKQAQXAFVRHLINKWTRQRY
modifications: Aib at positions 2, 13 and 20; Lys 29 epsilon-amino group carries C18DA-gGlu-gGlu-gGlu-gGlu-gGlu-gGlu-eLys; C-terminal amide
B2: Compound 173 (peptide)
peptide: B1 peptide with E15D, I27L, W30X
modifications: Aib at positions 2, 13, 20 and 30; Lys 29 epsilon-amino group carries C18DA-gGlu-gGlu-gGlu-gGlu-gGlu-gGlu-eLys; C-terminal amide

Key:
Assay in all cases: cell-based or functional assay
human GIP receptor = target: T1, human GIP receptor
[1] = target: T2, human neuropeptide Y2 receptor
human GLP-1 receptor = human GLP-1 receptor (human, UniProt P43220 24-463)

Row | Binder | EC50, CreLuc luciferase reporter assay, hGIPR 0.5% hP (human GIP receptor) [nM] | EC50, CreLuc luciferase reporter assay, hGIPR 100% hP (human GIP receptor) [nM] | EC50, CreLuc luciferase reporter assay, hNPY2R 0.5% hP [1] [nM] | EC50, CreLuc luciferase reporter assay, hNPY2R 100% hP [1] [nM] | EC50, CreLuc luciferase reporter assay, hGLP1R 0.5% hP (human GLP-1 receptor) [nM]
1 | B1 | 1.7 | 19.8 | 52.7 | 136 | –
2 | B2 | 0.7 | 20.1 | 7.3 | 55.5 | 0.2
3 | Y[Aib]EGTFTSDYSI[Aib]LEKQAQ[Aib]AFVRHLINK([γGlu-εLys-γGlu-γGlu-γGlu-γGlu-γGlu-C18 diacid])[Aib]TRQRY-NH2 (also: TFA salt) [Compound 174] | – | – | – | – | 1
